This assay deals with asymmetric nucleosome with H2B-Ser6 tri-ADP-ribose on one side only (Nuc-H2B-ADPr3) (Xenopus laevis | not stated) (UniProt P02281). Briefly: cryo-EM structure; modified nucleosomes at 1 µM, ALC1 at 6 µM, ADP-BeF3 at 1 mM, incubated 60 minutes on ice before vitrification.

Chain of ALC1 (Amplified in Liver Cancer 1), wild-type construct (16-879) (Q86WJ1 16-879): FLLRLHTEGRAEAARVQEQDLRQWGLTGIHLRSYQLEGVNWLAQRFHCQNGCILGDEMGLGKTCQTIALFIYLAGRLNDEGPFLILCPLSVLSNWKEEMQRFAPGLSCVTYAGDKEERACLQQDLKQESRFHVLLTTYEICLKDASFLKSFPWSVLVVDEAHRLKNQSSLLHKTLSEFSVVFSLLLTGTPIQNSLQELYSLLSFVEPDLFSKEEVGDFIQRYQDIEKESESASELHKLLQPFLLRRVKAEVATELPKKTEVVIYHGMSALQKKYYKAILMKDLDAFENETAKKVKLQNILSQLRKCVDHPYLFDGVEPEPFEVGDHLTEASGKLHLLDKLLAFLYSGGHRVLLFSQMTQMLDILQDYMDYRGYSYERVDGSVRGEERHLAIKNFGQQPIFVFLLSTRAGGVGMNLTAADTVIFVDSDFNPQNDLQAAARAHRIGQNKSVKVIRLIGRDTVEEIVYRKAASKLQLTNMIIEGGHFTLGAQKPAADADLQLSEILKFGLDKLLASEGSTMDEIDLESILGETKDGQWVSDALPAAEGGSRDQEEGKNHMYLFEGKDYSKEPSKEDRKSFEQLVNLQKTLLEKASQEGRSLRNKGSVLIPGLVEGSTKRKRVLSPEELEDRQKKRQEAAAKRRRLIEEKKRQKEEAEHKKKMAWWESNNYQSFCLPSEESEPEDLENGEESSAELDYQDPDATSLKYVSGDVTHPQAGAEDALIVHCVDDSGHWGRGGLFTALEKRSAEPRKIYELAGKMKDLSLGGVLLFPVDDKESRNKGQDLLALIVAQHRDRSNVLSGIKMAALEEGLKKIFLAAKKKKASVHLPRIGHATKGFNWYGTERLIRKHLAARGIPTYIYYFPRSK

As a reminder, the stoichiometry N is the number of molecules, sites or subunits per partner or assembly. “ALC1 (Amplified in Liver Cancer 1), wild-type construct (16-879) (from UniProt Q86WJ1 16-879) (enzyme)” showed a stoichiometry N of 1.

Values taken from PMC10837151.
